Experimental findings from patent publication US20130344070A1 (SORRENTO THERAPEUTICS, published 2013) are described below.

Test [1] concerns the target T1, human CCR2 (CC-Chemokine Receptor 2) (human, UniProt P41597 1-374). In words: cell-based or functional assay.
The target of test [2] is T2, murine CCR2 (murine, UniProt P51683 1-373). Description: cell-based or functional assay.
Test [3] addresses T1, human CCR2 (CC-Chemokine Receptor 2). Description: cell-based or functional assay. The source holds these as a separate data set.
Test [4] has the same target. Description: cell-based or functional assay. The source holds these as a separate data set.
The target is the same in test [5]. Description: cell-based or functional assay. The source holds these as a separate data set.
Test [6] deals with T2, murine CCR2. Description: cell-based or functional assay. This is another data set of the same source.
Test [7] concerns the target T1, human CCR2 (CC-Chemokine Receptor 2). Description: flow cytometry on CHO-CCR2 cells (FIG. 1). On the procedure: (§1) The data in FIG. 1 illustrates in vitro data for cellular binding EC₅₀ measurements. […] In this example, CHO-CCR2 cells were lifted from culture flasks using non-enzymatic Cell Dissociation Buffer—PBS based (Life Technologies #13151-014). Cells were resuspended in FACS Buffer (2% Fetal Bovine Serum in PBS) at 1×10⁶ cells/ml and 100 μl (1×10⁵ cells) were aliquoted into the wells of a 96-well plate. Plated cells were spun down and the supernatant discarded. Cells were resuspended in 50 μl FACS Buffer containing the indicated concentrations of CCR2 D1 IgG in triplicate (FIG. 1). Plates were incubated for 1 hr at 4° C., then washed 1× with FACS Buffer. Cells were resuspended in 50 μl goat anti-human IgG (γ-chain specific)-PE conjugated secondary antibody (Southern Biotech #2040-09) diluted 1:500 in FACS Buffer. Cells were further incubated for 30 min at 4° C. and then washed 1× with FACS Buffer. The cells were resuspended in a final volume of 25 μl FACS Buffer and analyzed using the Intellicyt Flow Cytometer. Median fluorescence in the FL-2H channel was determined using FlowJo software and EC₅₀ value was determined by plotting the data in GraphPad Prism and analyzing using a variable slope non-linear regression.

The target in test [8] is T2, murine CCR2. Description: flow cytometry on murine CCR2-expressing cells (FIG. 2).
Test [9] addresses T1, human CCR2 (CC-Chemokine Receptor 2). Description: flow cytometry on CHO-huCCR2 cells, PE anti-human IgG. The protocol: as §1
Test [10] has as its target T2, murine CCR2. In words: flow cytometry on WEHI 274.1 cells (murine CCR2), PE anti-human IgG. The protocol:
In this example, WEHI 274.1 cells were resuspended in FACS Buffer (2% Fetal Bovine Serum in PBS) at 1×10⁶ cells and […] of cell suspension was aliquoted into the wells of a 96-well plate. Plated cells were spun down and the supernatant discarded. Cells were resuspended in 30 μl FACS Buffer containing serially diluted anti-CCR2 IgGs in triplicate. Plates were incubated for 1 hr at 4° C., then washed 2× with FACS Buffer. Cells were resuspended in 50 μl goat anti-human IgG (γ-chain specific)-PE conjugated secondary antibody (Southern Biotech #2040-09) diluted 1:500 in FACS Buffer, incubated for 30 min at 4° C. and then washed 1× with FACS Buffer. The cells were resuspended in a final volume of 30 μl FACS Buffer and analyzed using the Intellicyt Flow Cytometer. Median fluorescence in the FL-2H channel was determined using FlowJo software and EC₅₀ values were determined by plotting the data in GraphPad Prism and analyzed using a variable slope non-linear regression.

T2 sequence (P51683 whole entry): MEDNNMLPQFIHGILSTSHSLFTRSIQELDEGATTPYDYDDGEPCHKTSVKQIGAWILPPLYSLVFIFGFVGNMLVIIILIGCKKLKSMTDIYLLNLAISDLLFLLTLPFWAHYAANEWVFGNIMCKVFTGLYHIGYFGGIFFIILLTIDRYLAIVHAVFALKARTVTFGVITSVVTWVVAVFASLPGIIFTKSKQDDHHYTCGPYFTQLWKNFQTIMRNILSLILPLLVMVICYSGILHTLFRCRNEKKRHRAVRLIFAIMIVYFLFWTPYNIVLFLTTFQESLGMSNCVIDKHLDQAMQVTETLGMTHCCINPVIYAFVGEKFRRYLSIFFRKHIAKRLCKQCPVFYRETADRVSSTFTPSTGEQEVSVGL
T1 sequence (P41597 whole entry): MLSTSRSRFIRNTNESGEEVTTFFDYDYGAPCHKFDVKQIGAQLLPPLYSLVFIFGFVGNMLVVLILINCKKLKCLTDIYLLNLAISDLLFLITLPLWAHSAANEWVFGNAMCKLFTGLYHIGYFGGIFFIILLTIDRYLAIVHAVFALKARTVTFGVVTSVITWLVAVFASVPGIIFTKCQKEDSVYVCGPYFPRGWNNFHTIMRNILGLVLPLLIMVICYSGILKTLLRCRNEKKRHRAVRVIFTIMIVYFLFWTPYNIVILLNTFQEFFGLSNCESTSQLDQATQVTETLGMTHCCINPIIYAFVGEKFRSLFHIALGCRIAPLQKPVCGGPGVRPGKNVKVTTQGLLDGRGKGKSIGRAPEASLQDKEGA

B1: D1 (antibody, human IgG1, V domains shown)
VH: EVQLVQSGAEVKKPGASVKVSCKASGYTFTGYHMHWVRQAPGQGLEWMGWINPNSGVTKYAQKFQGRVTMTRDTSINTAYMELSRLRFDDTDVYYCATGGFGYWGEGTLVTVSS
VL: LPVLTQPPSVSKGLRQTATLTCTGNSNNVGNQGAAWLQQHQGQPPKLLSYRNHNRPSGVSERFSPSRSGDTSSLTITGLQPEDEADYYCLAWDSSLRAFVFGTGTKLTVL
notes: also called CCR2 D1 IgG; anti-CCR2 D1 antibody
As for B1, in test [1], the “IC50 of D1 on MCP-1 (1 nM) induced primary human monocyte migration, another donor” value was determined as 3480 pM; the “IC50 of D1 on MCP-1 (1 nM) induced primary human monocyte migration, first donor” value is 1020 pM; the “IC50 of D1 on MCP-1 (3 nM) induced THP-1 cell migration” value stood at 194 pM; the “IC50 of D1 on MCP-1 (10 nM) induced THP-1 calcium mobilization” value came to 4700 pM. For the same molecule, in test [1], the “IC50 of D1 on MCP-1 (10 nM) induced primary human monocyte calcium mobilization” value is 2800 pM. Also, the “IC50 of D1 on mMCP-1 induced WEHI 274.1 cell migration” value in the test with murine CCR2 [2] is 66000 pM. Moreover, in test [3], the “IC50 on MCP-1 induced THP-1 cell migration” value came to 168 pM, the “IC50 on MCP-2 induced THP-1 cell migration” value amounted to 172 pM, the “IC50 on MCP-3 induced THP-1 cell migration” value came to 854 pM and the “IC50 on MCP-4 induced THP-1 cell migration” value is 138 pM. Besides, the “IC50 on mouse MCP-5 induced THP-1 cell migration” value in test [3] turned out to be 190 pM. In test [4], the “IC50 in chemotaxis assay using human THP-1 cells, ligand MCP-1 (3 nM)” value stood at 170 pM; the “IC50 in chemotaxis assay using human THP-1 cells, ligand MCP-2 (6.7 nM)” value turned out to be 170 pM; the “IC50 in chemotaxis assay using human THP-1 cells, ligand MCP-3 (1.1 nM)” value came out at 110 pM; the “IC50 in chemotaxis assay using human THP-1 cells, ligand MCP-4 (35 nM)” value was determined as 140 pM. Further, the “IC50 in chemotaxis assay using human THP-1 cells, ligand MCP-5 (0.65 nM)” value in test [4] was found to be 190 pM. Besides, in test [5], the “IC50 in calcium flux assay using human THP-1 cells, ligand MCP-1 (2.5 nM)” value is 180 pM; the “IC50 in calcium flux assay using human THP-1 cells, ligand MCP-3 (22 nM)” value is 190 pM; the “IC50 in calcium flux assay using human THP-1 cells, ligand MCP-5 (0.43 nM)” value came out at 280 pM. In addition, the “IC50 in chemotaxis assay using mouse WEHI cells, ligand mouse MCP-1 (0.7 nM)” value with murine CCR2 [6] stood at 62 pM. This molecule registered an EC50 in test [7] of 168 pM. This molecule also showed an EC50 in the test with murine CCR2 [8] of roughly 17000 pM. In test [9], this molecule gave an EC50 of 170 pM. In the test with murine CCR2 [10], this molecule registered a half-maximal effective concentration (EC50) of 1500 pM.

B2: D1-1/45H8L1 (antibody, V domains shown)
VH: QVQLVQSGAEVKKPGASVKVSCKASGYTFTGYYMHWVRQAPGQGLEWMGWINPNSGVTKYAQKFQGRVTMTRDTSTSTVYMELSSLRSEDTAVYYCATGGFGYWGEGTLVTVSS
VL: QAVLTQPPSVSKGLRQTATLTCTGNSNNVGNQGAAWLQQHQGQPPKLLSYRNHNRPSGVSERFSPSRSGDTSSLTITGLQPEDEADYYCLAWDSSLRAFVFGTGTKLTVL
notes: also called D1H1/45H8L1; D1-1B
B2: in [4], the “IC50 in chemotaxis assay using human THP-1 cells, ligand MCP-1 (3 nM)” value was determined as 280 pM and the “IC50 in chemotaxis assay using human THP-1 cells, ligand MCP-4 (35 nM)” value was determined as 80 pM. For the same molecule, in test [5], the “IC50 in calcium flux assay using human THP-1 cells, ligand MCP-1 (2.5 nM)” value amounted to 370 pM; the “IC50 in calcium flux assay using human THP-1 cells, ligand MCP-3 (22 nM)” value is 190 pM; the “IC50 in calcium flux assay using human THP-1 cells, ligand MCP-5 (0.43 nM)” value stood at 270 pM. Further, the “IC50 in chemotaxis assay using mouse WEHI cells, ligand mouse MCP-1 (0.7 nM)” value with murine CCR2 [6] was determined as 12 pM. A half-maximal effect in [9] (EC50) was put at 150 pM. The same molecule had an EC50 with murine CCR2 [10] of 2000 pM.
